Test [1] concerns the target T1, HuCDCP1-A (human, UniProt Q9H5V8 30-430).
T1 construct: range 30-430; expressed in HEK-293T, purified by Fc/his tag; also called human CDCP1-A; membrane-distal region of CDCP1; not shown: Fc or his tag
T1 sequence (looked up): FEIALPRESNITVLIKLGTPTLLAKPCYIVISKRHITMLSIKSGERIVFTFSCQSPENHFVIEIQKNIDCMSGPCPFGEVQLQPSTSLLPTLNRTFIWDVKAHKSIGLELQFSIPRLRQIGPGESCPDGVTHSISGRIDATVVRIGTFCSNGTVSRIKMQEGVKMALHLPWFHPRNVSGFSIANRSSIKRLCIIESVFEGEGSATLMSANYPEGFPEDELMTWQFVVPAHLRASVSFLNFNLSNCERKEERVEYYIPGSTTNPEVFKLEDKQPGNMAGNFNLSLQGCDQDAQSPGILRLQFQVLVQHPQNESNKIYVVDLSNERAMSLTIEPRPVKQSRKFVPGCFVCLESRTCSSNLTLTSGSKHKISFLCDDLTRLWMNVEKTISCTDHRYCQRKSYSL
As to the kind of experiment: SPR (Caterra), antigen immobilized. On the procedure: (§1) The humanized anti-CDCP1 antibodies obtained from Example 11 were subjected to gene cloning, constructed into pTT5 expression vector for a small amount of expression in CHO cells (Expi-CHOS: Gibco A29127), and purified with an Fc affinity column (AT Protein A Diamond Plus. No. AA402312). Antibody purity was analyzed by HPLC and determined by Nanodrop. High-throughput affinity assay was carried out for a small amount of antibodies by Caterra.
(§2) Further, Partial anti-CDCP1 humanized antibodies were selected for expression, and then the affinity of the antibodies to the antigens Hu-CDCP1-A, Hu-CDCP1-B, Cyno-CDCP1, and Ms-CDCP1 was detected according to the above affinity detection method.

The target in test [2] is T2, MsCDCP1 (mouse, UniProt Q5U462 30-666).
T2 construct: extracellular domain; also called mouse CDCP1; not shown: Fc or his tag
T2 sequence (looked up): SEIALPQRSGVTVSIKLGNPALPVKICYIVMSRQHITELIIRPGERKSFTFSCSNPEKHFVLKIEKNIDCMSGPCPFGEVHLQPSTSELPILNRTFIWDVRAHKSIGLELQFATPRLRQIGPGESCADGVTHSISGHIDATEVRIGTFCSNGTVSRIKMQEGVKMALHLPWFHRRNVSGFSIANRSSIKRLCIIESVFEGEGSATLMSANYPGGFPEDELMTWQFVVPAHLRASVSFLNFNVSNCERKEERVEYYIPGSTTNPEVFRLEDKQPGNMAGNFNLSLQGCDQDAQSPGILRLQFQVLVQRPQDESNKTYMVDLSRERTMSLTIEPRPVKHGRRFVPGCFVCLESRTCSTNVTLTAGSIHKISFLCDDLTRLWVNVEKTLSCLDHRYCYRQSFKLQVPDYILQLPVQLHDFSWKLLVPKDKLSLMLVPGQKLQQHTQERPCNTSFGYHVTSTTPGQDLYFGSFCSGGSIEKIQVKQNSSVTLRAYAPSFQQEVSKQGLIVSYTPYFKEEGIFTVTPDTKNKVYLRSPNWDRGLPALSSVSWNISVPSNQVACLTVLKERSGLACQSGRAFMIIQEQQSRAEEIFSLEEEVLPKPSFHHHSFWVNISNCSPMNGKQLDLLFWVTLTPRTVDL
Briefly: SPR (Caterra), antigen immobilized. The method, then: as §1, §2

For the next test, the target named is T3, CynoCDCP1 (Macaca fascicularis, UniProt A0A2K5VLA8 30-667).
T3 construct: extracellular domain; also called Macaca fascicularis CDCP1; monkey CDCP1; not shown: Fc or his tag
T3 sequence: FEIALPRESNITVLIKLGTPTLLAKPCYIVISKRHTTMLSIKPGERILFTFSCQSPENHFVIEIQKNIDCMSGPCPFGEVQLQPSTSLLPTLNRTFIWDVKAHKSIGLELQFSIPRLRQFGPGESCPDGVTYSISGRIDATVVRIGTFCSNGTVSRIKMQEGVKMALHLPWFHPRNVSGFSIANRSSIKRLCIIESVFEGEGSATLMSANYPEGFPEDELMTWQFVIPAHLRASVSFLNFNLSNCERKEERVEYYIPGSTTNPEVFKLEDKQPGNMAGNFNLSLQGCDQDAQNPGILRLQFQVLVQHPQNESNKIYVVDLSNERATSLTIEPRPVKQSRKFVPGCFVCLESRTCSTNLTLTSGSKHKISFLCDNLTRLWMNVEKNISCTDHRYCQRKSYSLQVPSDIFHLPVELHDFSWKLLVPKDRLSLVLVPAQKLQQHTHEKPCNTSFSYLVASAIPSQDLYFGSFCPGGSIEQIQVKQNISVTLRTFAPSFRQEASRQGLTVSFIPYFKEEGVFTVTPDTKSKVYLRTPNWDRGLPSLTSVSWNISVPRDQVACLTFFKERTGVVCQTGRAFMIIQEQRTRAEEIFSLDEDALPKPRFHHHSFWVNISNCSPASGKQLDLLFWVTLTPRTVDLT
As to the kind of experiment: SPR (Caterra or Biacore), antigen immobilized.

The target of test [3] is T1, HuCDCP1-A. Briefly: SPR (Caterra or Biacore), antigen immobilized. (In general: Surface plasmon resonance follows binding to a sensor surface in real time, without labels.)
The target of a further test is T4, RatCDCP1 (rat, UniProt D3ZVA1 29-666).
T4 construct: extracellular domain; not shown: Fc or his tag
T4 sequence: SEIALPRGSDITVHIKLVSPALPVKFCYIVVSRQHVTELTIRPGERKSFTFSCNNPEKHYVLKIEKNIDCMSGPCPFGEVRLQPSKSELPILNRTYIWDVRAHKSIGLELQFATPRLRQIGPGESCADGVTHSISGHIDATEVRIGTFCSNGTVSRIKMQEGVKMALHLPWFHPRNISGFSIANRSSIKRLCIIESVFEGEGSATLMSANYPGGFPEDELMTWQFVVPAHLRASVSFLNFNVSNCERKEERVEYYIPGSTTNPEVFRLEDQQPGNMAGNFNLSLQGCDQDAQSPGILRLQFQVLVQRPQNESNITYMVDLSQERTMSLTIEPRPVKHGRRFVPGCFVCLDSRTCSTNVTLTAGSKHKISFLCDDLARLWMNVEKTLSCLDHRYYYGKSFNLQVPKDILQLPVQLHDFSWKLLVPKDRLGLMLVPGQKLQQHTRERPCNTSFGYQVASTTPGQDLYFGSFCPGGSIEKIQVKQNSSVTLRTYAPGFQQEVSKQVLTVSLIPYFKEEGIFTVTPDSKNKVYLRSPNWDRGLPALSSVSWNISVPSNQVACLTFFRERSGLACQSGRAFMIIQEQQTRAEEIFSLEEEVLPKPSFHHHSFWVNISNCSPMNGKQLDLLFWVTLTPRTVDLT
Briefly: SPR (Caterra or Biacore), antigen immobilized.

Test [4] deals with T2, MsCDCP1. Briefly: SPR (Caterra or Biacore), antigen immobilized.

B1: 1CP-124 (antibody, human IgG1, kappa, V domains shown)
VH: QVQLVQSGAEVKKPGASVKVSCKASGYNFISYWLHWVRQAPGQGLEWMGGIYPGNTDTTYNQKFKGRVTMTRDTSTSTVYMELSSLRSEDTAVYYCIRYDYDRGMDYWGQGTLVTVSS
VL: DIQMTQSPSSLSASVGDRVTITCRASEDIYYRLAWYQQKPGKAPKLLISGATALETGVPSRFSGSGSGKDYTFTISSLQPEDIATYYCQHYWNIPWTFGQGTKVEIKR
notes: humanized 3C11, human IgG1 kappa
Broadly, the Kd is the equilibrium constant for the complex coming apart. High values mean lower affinity, low ones higher affinity. Consider B1, for which the figures for the Kd in the test with HuCDCP1-A [1] and with MsCDCP1 [2] were 132 nM and 274 nM, respectively.

B2: 1CP-129 (antibody, human IgG1, kappa, V domains shown)
VH: QVQLVQSGAEVKKPGASVKVSCKASGYNFISYWLHWVRQAPGQGLEWMGGIYPGNTDTTYNQKFKGRVTMTADTSTSTVYMELSSLRSEDTAVYYCIRYDYDRGMDYWGQGTLVTVSS
VL: DIQMTQSPSSLSASVGDRVTITCRASEDIYYRLAWYQQKPGKAPKLLISGATALETGVPSRFSGSGSGKDYTLTISSLQPEDIATYYCQHYWNIPWTFGQGTKVEIKR
notes: as for B1
As for B2, in the test with HuCDCP1-A [1], the Kd worked out at 126 nM. In the test with MsCDCP1 [2], the binding result was “no binding (tested: 150 nM highest concentration)”.

B3: 1CP-128 (antibody, human IgG1, kappa, V domains shown)
VH: QVQLVQSGAEVKKPGASVKVSCKASGYNFISYWLHWVRQAPGQGLEWMGGIYPGNTDTTYNQKFKGRVTMTRDTSTSTVYMELSSLRSEDTAVYYCIRYDYDRGMDYWGQGTLVTVSS
VL: DIQMTQSPSSLSASVGDRVTITCRASEDIYYRLAWYQQKPGKAPKLLISGATALETGVPSRFSGSGSGKDYTLTISSLQPEDIATYYCQHYWNIPWTFGQGTKVEIKR
notes: as for B1
B3 came in with a Kd with HuCDCP1-A [1] of 76 nM. In addition, the binding result with MsCDCP1 [2] is given as “no binding (tested: 150 nM highest concentration)”.

B4: 1CP-125 (antibody, human IgG1, kappa, V domains shown)
VH: QVQLVQSGAEVKKPGASVKVSCKASGYNFISYWLHWVRQAPGQGLEWMGGIYPGNTDTTYNQKFKGRVTMTADTSTSTVYMELSSLRSEDTAVYYCIRYDYDRGMDYWGQGTLVTVSS
VL: DIQMTQSPSSLSASVGDRVTITCRASEDIYYRLAWYQQKPGKAPKLLISGATALETGVPSRFSGSGSGKDYTFTISSLQPEDIATYYCQHYWNIPWTFGQGTKVEIKR
notes: as for B1
As to B4, the equilibrium dissociation constant (Kd) with HuCDCP1-A [1] turned out to be 559 nM. In the test with MsCDCP1 [2], the binding result is reported as “no binding (tested: 150 nM highest concentration)”.

B5: 1CP-152 (antibody, human IgG1, kappa, V domains shown)
VH: EVQLVESGGGLVQPGRSLRLSCTTSGLTFTHYHMSWVRQAPGKGLEWVAIIRNKAYGYTTDYSASVRGRFTISRDDSKSILYLQMNSLKTEDTAVYYCVREGGYGYDGTFAYWGQGTLVTVSS
VL: DIQMTQSPSSLSASVGDRVTITCRASESVDNYGISFMNWFQQKPGQAPKLLIYAASNQGSGVPSRFSGSGSGTDFTLTISSMQPEDFATYYCQQSKEVPRTFGGGTKVEIKR
notes: humanized 8C9, human IgG1 kappa
For B5, the Kd is 105 nM with HuCDCP1-A [1] and 745 nM with MsCDCP1 [2].

B6: 1CP-117 (antibody, human IgG1, kappa, V domains shown)
VH: QVQLVQSGSELKKPGASVKVSCKASGYTLTDFSMHWVRQAPGQGLEWMGWINTETGAPTYADDFKGRFVLSLDTSVSTAYLQISSLKAEDTAVYYCSRGRDYDPHFDYWGQGTLVTVSS
VL: EIVLTQSPATLSLSPGERATLSCRASQSISDFLHWYQQKPGQSPRLLIKYASQSISGIPARFSGSGSGSDFTLTISSVEPEDFAVYYCQSAHSFPYTFGQGTKLEIKR
notes: humanized 8E5, human IgG1 kappa
For the molecule B6, the Kd in the test with HuCDCP1-A [1] amounted to 76.5 nM; in the test with MsCDCP1 [2], 212 nM.

B7: 1CP-121 (antibody, human IgG1, kappa, V domains shown)
VH: QVQLVQSGSELKKPGASVKVSCKASGYTLTDFSMHWVRQAPGQGLEWMGWINTETGAPTYADDFKGRFVLSLDTSVSTAYLQISSLKAEDTAVYYCSRGRDYDPHFDYWGQGTLVTVSS
VL: EIVLTQSPATLSLSPGERATLSCRASQSISDFLHWYQQKSGQSPRLLIKYASQSISGIPARFSGSGSGSDFTLTISSVEPEDFAVYYCQSAHSFPYTFGQGTKLEIKR
notes: as for B6
Take B7: the Kd with HuCDCP1-A [1] worked out at 99.8 nM; with MsCDCP1 [2] it was 141 nM.

B8: 10D2 (antibody, V domains shown)
VH: EVQLQQSGPELKKPGETVKISCKASGYTFTDYSMHWVKQAPGKGLKWMGWINTETGQPTYADDFKGRFAFSLETSASSAYLQINNLKNEDTATYFCTRTFYYDYVGDYWGQGTTVTVSS
VL: DIVMTQSHKFMSTSVGDRVSITCKASQDVSTAVAWYRQKPGQSPKLLIYWASTRHTGVPDRLTGSGSGTDFALTINSVQAEDLALYYCQQHSSTPYTFGGGTKLEIK
notes: murine hybridoma mAb
The EC50 is the concentration needed to bring the measured effect to its halfway point. With B8, the half-maximal effective concentration (EC50) with CynoCDCP1 is 16.1 nM; with HuCDCP1-A [3], 0.747 nM; in the test with RatCDCP1, 41.1 nM. Besides, the binding result in the test with MsCDCP1 [4] is recorded as “no binding (tested: 150 nM highest concentration)”.

B9: 14A10C5 (antibody, V domains shown)
VH: EVKLVESGPGILQPSQTLSLTCSFSGFSLSTSGMGVSWIRQPSGKGLEWLAHIYWDDEKRYNPSLKSRLTISKDTSSNQVFLKITSVDTADTATYYCAREGSANWEAMDYWGQGTTVTVSS
VL: DIVMTQAALSLPVSLGDQASISCRSSQNIVYTNGITYLEWYLQKPGQSPKLLIYKVSNRFSGVPDRFSGSGSATDFTLKISRVEAEDLGVYYCFQSSHVPWTFGGGTKLEIK
notes: murine hybridoma mAb; also called 14A10CS
In the test with CynoCDCP1, B9 yielded an EC50 of 98.3 nM. The binding result with HuCDCP1-A [3], with RatCDCP1 and with MsCDCP1 [4] was “no binding (tested: 150 nM highest concentration)” throughout.

Source of the values: patent US20260250410A1 (SICHUAN HUIYU PHARMACEUTICAL, published 2026).
